Reference: patent publication US20150132779A1

Target: M1-linked polyubiquitin chains (UniProt P0CG48)
Test: cell-based or functional assay

Ub-ProT assay: length of chain protected from trypsinization (ubiquitin molecules): < 16
Substance: trypsin-resistant tandem ubiquitin binding entity (TR-TUBE) (designed binder)
